Test results taken from US20160177392A1.

Molecular target: soybean alpha-SNAP from the Rhg1 locus, full length, with C-terminal six-histidine tag (soybean (Glycine max))
Experiment: gel filtration (Superdex 75); HgSLP-1 alone eluted at fraction 23, albumin standard (67 kDa) at fraction 12, chymotrypsinogen A (25 kDa) at fraction 30

Substance: Heterodera glycines SNARE-like protein 1 (HgSLP-1), full length, expressed in E. coli
- elution fraction of HgSLP-1 in gel filtration: 15
